Experimental data published in patent US20230374072A1 (priority 2020, published 2023).

System: TNF expression in HUVEC cell culture

Gly-Asp-Cys-Pro-Pro-Trp-Cys-Gly-Ala-Arg-Cys-(XXX)-Cys [SEQ ID NO:1 scaffolding protein]
toxic activity (activity of the toxin): does not present any type of toxic activity
